Measured values published in patent US20220251173A1.

Assays:
[1] = target: hepatitis B virus surface antigen (HBsAg) (hepatitis B virus); experiment: ELISA on commercial HBsAg plate, purified antibody, incubation and washes at pH 7.4, GAH-HRP, OD450/630
[2] = target: hepatitis B virus surface antigen (HBsAg) (hepatitis B virus); experiment: ELISA on commercial HBsAg plate, wash/incubation at pH 6.0, quantified transfection supernatant
[3] = target: hepatitis B virus surface antigen (HBsAg) (hepatitis B virus); experiment: ELISA on commercial HBsAg plate, ratio of EC50 at pH 6.0 to pH 7.4
[4] = target: hepatitis B virus surface antigen (HBsAg) (hepatitis B virus); experiment: ELISA on commercial HBsAg plate, pH 7.4, quantified transfection supernatant

B1: D3 DY (antibody, human IgG1, kappa, V domains shown)
VH: EVQLQESGPGLVKPSQTLSLTCAVSGSSITHGYHYNWIRQFPGNKLEWIGYIHYDGSVLYNPSLENRVTITRDTSKNQFFLKLSSVTAEDTAKYYCASGFDHWGQGTTLTVSS
VL: DVVMTQSPLSLPVTLGEPASISCRSSQSLVHSYGDNYLHWYLQKPGQSPKLLIYKVSNRFSGVPDRFSGSGSGTDFTLKISRVETEDLGVYYCSQNTHVPYTFGGGTKLEIKR
Which EC50 (read off the curve) [1] does the source give for B1 here?
The EC50 (read off the curve) was 50 ng/mL.

B2: D5 DY (antibody, human IgG1, kappa, V domains shown)
VH: EVQLQESGPGLVKPSQTLSLTCAVSGSSITHGYHWNWIRQFPGNKLEWIGYIHYDGSVLYNPSLENRVTITRDTSKNQFFLKLSSVTAEDTAKYYCASGFDHWGQGTTLTVSS
VL: DVVMTQSPLSLPVTLGEPASISCRSSQSLVHSYGDNYLHWYLQKPGQSPKLLIYKVSNRFSGVPDRFSGSGSGTDFTLKISRVETEDLGVYYCSQNTHVPYTFGGGTKLEIKR
How did the EC50 (read off the curve) [1] turn out when B2 was run?
The EC50 (read off the curve) was 40 ng/mL.

B3: D4 DY (antibody, human IgG1, kappa, V domains shown)
VH: EVQLQESGPGLVKPSQTLSLTCAVSGSSITHGYHWNWIRQFPGNKLEWIGYIHYDGSVLYNPSLENRVTITRDTSKNQFFLKLSSVTAEDTAKYYCASGFDHWGQGTTLTVSS
VL: DVVMTQSPLSLPVTLGEPASISCRSSQSLVHSYGDNYLHWYLQKPGQSPKLLIYKVSNRFSGVPDRFSGSGSGTDFTLKISRVETEDLGVYYCSQNTHLPYTFGGGTKLEIKR
With B3 as the binder, how does the EC50 (read off the curve) [1] read?
The EC50 (read off the curve) was 60 ng/mL.

B4: C32 (antibody, human IgG1, kappa, V domains shown)
VH: EVQLQESGPGLVKPSQTLSLTCAVSGSSITYRYHWNWIRQFPGNKLEWIGYINYDGSVHYNPSLENRVTITRDTSKNQFFLKLSSVTAEDTAKYYCASGFDHWGQGTTLTVSS
VL: DVVMTQSPLSLPVTLGEPASISCRSSQSLVHSYGDTYLHWYLQKPGQSPKLLIYKVSNRFSGVPDRFSGSGSGTDFTLKISRVETEDLGVYYCSQNTHLPYTFGGGTKLEIKR
B4 was tested. Which EC50 [2] did it give?
The EC50 was 2.25 µg/mL.

And the EC50(pH 6.0)/EC50(pH 7.4) [3]?
The EC50(pH 6.0)/EC50(pH 7.4) was 1.69.

What about the EC50 [4] of the same binder?
Its EC50 is 1.33 µg/mL.
